Assay results taken from paper PMC6317593, “Determining the amphipol distribution within membrane-protein fibre samples using small-angle neutron scattering” (Acta Crystallographica. Section D, Structural Biology, 2018).

Target: the molecule itself
Assay: SEC; Superose 12 column, 20 mM sodium phosphate pH 7.9, 100 mM NaCl, 0.5 ml/min; OmpF in amphipol A8-35 at 1:10 (w:w), detergent-free buffer; oligomer: trimer

B1: Outer membrane protein F (OmpF) (natural protein, E. coli, UniProt P02931 23-362, looked up)
chain: AEIYNKDGNKVDLYGKAVGLHYFSKGNGENSYGGNGDMTYARLGFKGETQINSDLTGYGQWEYNFQGNNSEGADAQTGNKTRLAFAGLKYADVGSFDYGRNYGVVYDALGYTDMLPEFGGDTAYSDDFFVGRVGGVATYRNSNFFGLVDGLNFAVQYLGKNERDTARRSNGDGVGGSISYEYEGFGIVGAYGAADRTNLQEAQPLGNGKKAEQWATGLKYDANNIYLAANYGETRNATPITNKFTNTSGFANKTQDVLLVAQYQFDFGLRPSIAYTKSKAKDVEGIGDVDLVNYFEVGATYYFNKNMSTYVDYIINQIDSDNKLGVGSDDTVAVGIVYQF
modifications: deuterated (cells grown in 85% D2O minimal medium)
notes: Outer membrane protein F (OmpF), the major porin of the E. coli outer membrane, produced from E. coli BE3000 cells; trimeric, each monomer a 16-stranded beta-barrel; Native protein purified from the outer membrane of strain BE3000; Held in amphipol A8-35 (not a protein) in all experiments; also called dOmpF; deuterated OmpF; source: E. coli BE3000 cells grown in 85% D2O minimal medium, purified …
- stoichiometry N: 3
